From US20240173352A1 (A2 BIOTHERAPEUTICS, published 2024)

Target: HLA-A*02 (on target cells) (human)
Assay: cell-based or functional assay

- EC50 right shift of the NY-ESO-1 TCR by 50 uM HA-1(H) peptide: ~30 fold
Binder: VLHDDLLEA [HA-1(H) peptide]
